From the supplement of paper PMC11246515
± gives the standard deviation of the averaged measurements.

Assay: total protein half-life in vivo (active degradation + dilution); higher = more stable protein
[1] = E. coli NCM3722 delta-clpP delta-lon delta-hslV, growth: N-lim chemostat, doubling time 6 h
[2] = E. coli NCM3722 delta-clpP, growth: N-lim chemostat, doubling time 6 h
[3] = E. coli NCM3722 delta-hslV, growth: N-lim chemostat, doubling time 6 h
[4] = E. coli NCM3722 delta-lon, growth: N-lim chemostat, doubling time 6 h
[5] = E. coli NCM3722 delta-smpB, growth: N-lim chemostat, doubling time 6 h
[6] = wild type E. coli NCM3722, growth: C-lim chemostat, doubling time 3 h
[7] = wild type E. coli NCM3722, growth: C-lim chemostat, doubling time 6 h
[8] = wild type E. coli NCM3722, growth: C-lim chemostat, doubling time 12 h
[9] = wild type E. coli NCM3722, growth: N-lim chemostat, doubling time 6 h
[10] = wild type E. coli NCM3722, growth: N-lim chemostat, doubling time 12 h
[11] = wild type E. coli NCM3722, growth: P-lim chemostat, doubling time 6 h
[12] = wild type E. coli NCM3722, growth: P-lim chemostat, doubling time 12 h

Substance	total protein half-life in vivo [1] [h]	total protein half-life in vivo [2] [h]	total protein half-life in vivo [3] [h]	total protein half-life in vivo [4] [h]	total protein half-life in vivo [5] [h]	total protein half-life in vivo [6] [h]	total protein half-life in vivo [7] [h]	total protein half-life in vivo [8] [h]	total protein half-life in vivo [9] [h]	total protein half-life in vivo [10] [h]	total protein half-life in vivo [11] [h]	total protein half-life in vivo [12] [h]
MWQAISRLLSEQLGEGEIELRNELPGGEVHAAWHLRYAGHDFFVKCDERELLPGFTAEADQLELLSRSKTVTVPKVWAVGADRDYSFLVMDYLPPRPLDAHSAFILGQQIARLHQWSDQPQFGLDFDNALSTTPQPNTWQRRWSTFFAEQRIGWQLELAAEKGIAFGNIDAIVEHIQQRLASHQPQPSLLHGDLWSGNCALGPDGPYIFDPACYWGDRECDLAMLPLHTEQPPQIYDGYQSVSPLPADFLERQPVYQLYTLLNRARLFGGQHLVIAQQSLDRLLAA	4.14 ± 0.66	3.457 ± 0.023	3.84 ± 0.5	3.77 ± 0.099	3.3 ± 0.13	3.159 ± 0.0069	5.21 ± 0.11	9.56 ± 0.57	3.31 ± 0.31	5.08 ± 0.18	5.685 ± 0.017	11.2 ± 0.46
MYDFVIIGGGIIGMSTAMQLIDVYPDARIALLEKESAPACHQTGHNSGVIHAGVYYTPGSLKAQFCLAGNRATKAFCDQNGIRYDNCGKMLVATSDLEMERMRALWERTAANGIEREWLNADELREREPNITGLGGIFVPSSGIVSYRDVTAAMAKIFQSRGGEIIYNAEVSGLNEHKNGVVIRTRQGGEYEASTLISCSGLMADRLVKMLGLEPGFIICPFRGEYFRLAPEHNQIVNHLIYPIPDPAMPFLGVHLTRMIDGSVTVGPNAVLAFKREGYRKRDFSFSDTLEILGSSGIRRVLQNHLRSGLGEMKNSLCKSGYLRLVQKYCPRLSLSDLQPWPAGVRAQAVSPDGKLIDDFLFVTTPRTIHTCNAPSPAATSAIPIGAHIVSKVQTLLASQSNPGRTLRAARSVDALHAAFNQ	5.44 ± 0.2	6.32 ± 1.6	5.3 ± 0.37	4.94 ± 0.065	4.58 ± 0.47	2.7 ± 0.3	5.48 ± 0.23	9.35 ± 0.39	5.4 ± 0.44	9.37 ± 0.29	4.51 ± 0.93	10.8 ± 0.21
MYDYIIVGSGLFGAVCANELKKLNKKVLVIEKRNHIGGNAYTEDCEGIQIHKYGAHIFHTNDKYIWDYVNDLVEFNRFTNSPLAIYKDKLFNLPFNMNTFHQMWGVKDPQEAQNIINAQKKKYGDKVPENLEEQAISLVGEDLYQALIKGYTEKQWGRSAKELPAFIIKRIPVRFTFDNNYFSDRYQGIPVGGYTKLIEKMLEGVDVKLGIDFLKDKDSLASKAHRIIYTGPIDQYFDYRFGALEYRSLKFETERHEFPNFQGNAVINFTDANVPYTRIIEHKHFDYVETKHTVVTKEYPLEWKVGDEPYYPVNDNKNMELFKKYRELASREDKVIFGGRLAEYKYYDMHQVISAALYQVKNIMSTD	6.0745 ± 0.0011	3.11		4.59 ± 0.33	2.83 ± 0.48				3.52			11.8
MYHDVSYLLSRLINGPLSLRQIYFASSNGPVPDLAYQVDFPRLEIVLEGEFVDTGAGATLVPGDVLYVPAGGWNFPQWQAPATTFSVLFGKQQLGFSVVQWDGKQYQNLAKQHVARRGPRIGSFLLQTLNEMQMQPQEQQTARLIVASLLSHCRDLLGSQIQTASRSQALFEAIRDYIDERYASALTRESVAQAFYISPNYLSHLFQKTGAIGFNEYLNHTRLEHAKTLLKGYDLKVKEVAHACGFVDSNYFCRLFRKNTERSPSEYRRQYHSQLTEKPTTPE	5.77 ± 0.063	3.94	4.1	5.72 ± 1.3	4.21 ± 0.49	2.6	6.09 ± 1.5	8.5207 ± 0.0056	3.8 ± 0.55	6.04	3.26	5.79 ± 0.83
MYKQAVILLLMLFTASVSAALPARYMQTIENAAVWAQIGDKMVTVGNIRAGQIIAVEPTAASYYAFNFGFGKGFIDKGHLEPVQGRQKVEDGLGDLNKPLSNQNLVTWKDTPVYNAPSAGSAPFGVLADNLRYPILHKLKDRLNQTWYQIRIGDRLAYISALDAQPDNGLSVLTYHHILRDEENTRFRHTSTTTSVRAFNNQMAWLRDRGYATLSMVQLEGYVKNKINLPARAVVITFDDGLKSVSRYAYPVLKQYGMKATAFIVTSRIKRHPQKWNPKSLQFMSVSELNEIRDVFDFQSHTHFLHRVDGYRRPILLSRSEHNILFDFARSRRALAQFNPHVWYLSYPFGGFNDNAVKAANDAGFHLAVTTMKGKVKPGDNPLLLKRLYILRTDSLETMSRLVSNQPQG	5.86 ± 0.059	5.98 ± 0.23	5.24 ± 0.3		5.73 ± 0.38		4.78	12.5	5.58 ± 0.86	11.6 ± 3	5.64	12.4
MYLYIETLKQRLDAINQLRVDRALAAMGPAFQQVYSLLPTLLHYHHPLMPGYLDGNVPKGICLYTPDETQRHYLNELELYRGMSVQDPPKGELPITGVYTMGSTSSVGQSCSSDLDIWVCHQSWLDSEERQLLQRKCSLLENWAASLGVEVSFFLIDENRFRHNESGSLGGEDCGSTQHILLLDEFYRTAVRLAGKRILWNMVPCDEEEHYDDYVMTLYAQGVLTPNEWLDLGGLSSLSAEEYFGASLWQLYKSIDSPYKAVLKTLLLEAYSWEYPNPRLLAKDIKQRLHDGEIVSFGLDPYCMMLERVTEYLTAIEDFTRLDLVRRCFYLKVCEKLSRERACVGWRRAVLSQLVSEWGWDEARLAMLDNRANWKIDQVREAHNELLDAMMQSYRNLIRFARRNNLSVSASPQDIGVLTRKLYAAFEALPGKVTLVNPQISPDLSEPNLTFIYVPPGRANRSGWYLYNRAPNIESIISHQPLEYNRYLNKLVAWAWFNGLLTSRTRLYIKGNGIVDLPKLQEMVADVSHHFPLRLPAPTPKALYSPCEIRHLAIIVNLEYDPTAAFRNQVVHFDFRKLDVFSFGENQNCLVGSVDLLYRNSWNEVRTLHFNGEQSMIEALKTILGKMHQDAAPPDSVEVFCYSQHLRGLIRTRVQQLVSECIELRLSSTRQETGRFKALRVSGQTWGLFFERLNVSVQKLENAIEFYGAISHNKLHGLSVQVETNHVKLPAVVDGFASEGIIQFFFEETQDENGFNIYILDESNRVEVYHHCEGSKEELVRDVSRFYSSSHDRFTYGSSFINFNLPQFYQIVKVDGREQVIPFRTKSIGNMPPANQDHDTPLLQQYFS	4.23 ± 0.18	3.635 ± 0.028	1.14 ± 0.25	1.04 ± 0.087	1.36 ± 0.081	0.845 ± 0.015	1.19	1.66 ± 0.22	1.27 ± 0.07	1.72 ± 0.053	2.155 ± 0.0068	3.73 ± 0.4
MYQDKILVRQLGLQPYEPISQAMHEFTDTRDDSTLDEIWLVEHYPVFTQGQAGKAEHILMPGDIPVIQSDRGGQVTYHGPGQQVMYVLLNLKRRKLGVRELVTLLEQTVVNTLAELGIEAHPRADAPGVYVGEKKICSLGLRIRRGCSFHGLALNVNMDLSPFLRINPCGYAGMEMAKISQWKPEATTNNIAPRLLENILALLNNPDFEYITA	4.39 ± 0.44	4.08 ± 0.77	3.55	> 8	3.73 ± 0.15	2.63 ± 0.15	6.03 ± 0.89	14.3	5.66	5.51 ± 1.4	5.14 ± 0.06	10.6 ± 0.37
MYQPVALFIGLRYMRGRAADRFGRFVSWLSTIGITLGVMALVTVLSVMNGFERELQNNILGLMPQAILSSEHGSLNPQQLPETAVKLDGVNRVAPITTGDVVLQSARSVAVGVMLGIDPAQKDPLTPYLVNVKQTDLEPGKYNVILGEQLASQLGVNRGDQIRVMVPSASQFTPMGRIPSQRLFNVIGTFAANSEVDGYEMLVNIEDASRLMRYPAGNITGWRLWLDEPLKVDSLSQQKLPEGSKWQDWRDRKGELFQAVRMEKNMMGLLLSLIVAVAAFNIITSLGLMVMEKQGEVAILQTQGLTPRQIMMVFMVQGASAGIIGAILGAALGALLASQLNNLMPIIGVLLDGAALPVAIEPLQVIVIALVAMAIALLSTLYPSWRAAATQPAEALRYE [P0ADC3]	6.47 ± 0.46	6.838 ± 0.034	6.01 ± 0.34	6.53 ± 1.3	6.43 ± 0.65	3.11 ± 0.068	5.78 ± 1.3	12.3 ± 0.59	5.8 ± 0.06	13.1 ± 1.6	6.178 ± 0.04	12.3 ± 1.1
MYTLNWQPPYDWSWMLGFLAARAVSSVETVADSYYARSLAVGEYRGVVTAIPDIARHTLHINLSAGLEPVAAECLAKMSRLFDLQCNPQIVNGALGRLGAARPGLRLPGCVDAFEQGVRAILGQLVSVAMAAKLTARVAQLYGERLDDFPEYICFPTPQRLAAADPQALKALGMPLKRAEALIHLANAALEGTLPMTIPGDVEQAMKTLQTFPGIGRWTANYFALRGWQAKDVFLPDDYLIKQRFPGMTPAQIRRYAERWKPWRSYALLHIWYTEGWQPDEA	6.48					2.32 ± 0.17	2.85	4.47	1.34	1.62	3.45	
MYYPFVRKALFQLDPERAHEFTFQQLRRITGTPFEALVRQKVPAKPVNCMGLTFKNPLGLAAGLDKDGECIDALGAMGFGSIEIGTVTPRPQPGNDKPRLFRLVDAEGLINRMGFNNLGVDNLVENVKKAHYDGVLGINIGKNKDTPVEQGKDDYLICMEKIYAYAGYIAINISSPNTPGLRTLQYGEALDDLLTAIKNKQNDLQAMHHKYVPIAVKIAPDLSEEELIQVADSLVRHNIDGVIATNTTLDRSLVQGMKNCDQTGGLSGRPLQLKSTEIIRRLSLELNGRLPIIGVGGIDSVIAAREKIAAGASLVQIYSGFIFKGPPLIKEIVTHI [P0A7E1]	6.89 ± 0.98	6.3 ± 1.1	6.7 ± 0.85	6.48 ± 0.29	6.46 ± 0.65	3.04 ± 0.24	5.72 ± 0.16	13.1 ± 0.45	6.26 ± 0.34	12.5 ± 0.72	6.03 ± 0.28	14.2 ± 1.6
P0AAI3	4.9 ± 0.24	5.097 ± 0.043	4.76 ± 0.23	4.88 ± 0.19	4.46 ± 0.14	3.11 ± 0.11	5.51 ± 0.52	10.8 ± 0.55	4.53 ± 0.27	8.44 ± 0.27	6.15 ± 0.37	10.2 ± 0.18
P0AES2	4.25 ± 0.51	3.729 ± 0.03	3.64 ± 0.5	3.41 ± 0.14	3.21 ± 0.19	3.03 ± 0.049	5.26 ± 0.72	8.83 ± 0.4	3.14 ± 0.086	4.57 ± 0.082	5.38 ± 0.73	8.99 ± 0.022
P0AGE9	4.58 ± 0.064	4.71 ± 0.71	4.68 ± 0.31	5.1 ± 0.21	4.28 ± 0.29	3.06 ± 0.069	5.43 ± 0.12	9.89 ± 1.2	4.64 ± 0.056	7.237 ± 0.026	5.85 ± 0.2	11.9 ± 0.51
